Data taken from patent publication US20200354406A1 (Bicycle, published 2020).
Starred links: 1 amine or outer side, 2 acyl side, 3 side chain; linkers in the order of their positions; H or OH if unused. Positions of bridges follow the written chain, without caps; N, C: chain ends. Non-standard residues stand in square brackets, D forms with d. Chains are numbered I, II in the order given. No end group written: not given here. *: point of attachment. TATA = O=C(CC[*:1])N1CN(C(=O)CC[*:2])CN(C(=O)CC[*:3])C1; 1Nal = N[C@@H](Cc1cccc2ccccc12)C(=O)O; Hyp = O=C(O)[C@@H]1C[C@@H](O)CN1; hArg = N=C(N)NCCCC[C@H](N)C(=O)O; Pent4ynoyl = C#CCCC(=O)*

T1: OX40 on OX40 Jurkat reporter cells (Promega CS197704) (UniProt P43489 29-277, limits assumed)
T1 sequence (looked up): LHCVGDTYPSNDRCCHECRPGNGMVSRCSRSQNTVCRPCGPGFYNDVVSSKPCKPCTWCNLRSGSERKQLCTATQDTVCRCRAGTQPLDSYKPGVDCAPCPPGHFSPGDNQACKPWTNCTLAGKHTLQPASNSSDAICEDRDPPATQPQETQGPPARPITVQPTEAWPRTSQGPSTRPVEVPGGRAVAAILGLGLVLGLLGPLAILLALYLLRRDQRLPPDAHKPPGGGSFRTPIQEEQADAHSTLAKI


Columns and labels:
Experiment in all cases: cell-based or functional assay
[1] = biological target: T1, OX40 on OX40 Jurkat reporter cells …
[2] = biological target: T1, OX40 on OX40 Jurkat reporter cells …; remark: listed apart in the source
[3] = biological target: T1, OX40 on OX40 Jurkat reporter cells …; remark: listed apart in the source

| Binder | EC50 (nM), Promega OX40 cell-activity assay in co-culture with Nectin-4 positive 4T1-D02 tumor cells [1] [nM] | EC50 (nM), Promega OX40 cell-activity assay (NF-κB luciferase in OX40 Jurkat cells) [2] [nM] | agonism in the Promega OX40 cell-activity assay relative to BCY10549 bound to streptavidin [3] [fold] |
| --- | --- | --- | --- |
| BCY12141, Nectin-4:OX40 heterotandem of BCY11607 [A-(SEQ ID NO: 6)-A-K(Pya)] and BCY8116-PEG12-N3 (linker I:2-I:7-I:14, II:1-II:5-II:15 via TATA; not fully specified (bridges); also: PEG12 linker attached to chain 2, place not given here) peptide 1: ACLYSPCWHPLNDCAK(Pent4ynoyl) peptide 2: CP[1Nal][dD]CM[hArg]DWSTP[Hyp]WC | 0.59 | – | – |
| ACLYSPCWHPLNDCAK (linker 2-7-14 via TATA; not fully specified (residue 16); also: tetramer: four BCY11607 monomers clicked via S1A to central hinge A (TET)) | – | 2.6 | ~10 |
| BCY12721, Nectin-4:OX40 heterotandem (taken as BCY12708 [Ac-A-(SEQ ID NO: 6)-A-K(Pya)] with a PEG5 derivative of BCY8116) (linker I:2-I:7-I:14, II:1-II:5-II:15 via TATA; not fully specified; also: heterotandem: chain 1 Lys(Pya) linked to PEG5 derivative of chain 2) peptide 1: Ac-ACLYSPCWHPLNDCAK(Pent4ynoyl) peptide 2: CP[1Nal][dD]CM[hArg]DWSTP[Hyp]WC | 0.94 | – | – |
| BCY12967, Nectin-4:OX40 heterotandem of a trifunctional PEG3 derivative of BCY8116 and BCY11607 (linker I:2-I:7-I:14, II:1-II:5-II:15 via TATA; not fully specified (bridges); also: two copies of chain 1 (BCY11607) clicked via Lys(Pya) to the trifunctional PEG3 linker) peptide 1: ACLYSPCWHPLNDCAK(Pent4ynoyl) peptide 2: CP[1Nal][dD]CM[hArg]DWSTP[Hyp]WC | 0.83 | – | – |
